Assay results taken from PMC11371216, “Structural insight into the DNMT1 reaction cycle by cryo-electron microscopy”.

Target: DNMT1 (human, UniProt P26358 1-1616)
Test: EMSA; SAM 20-fold excess + GSK3852279B 5-fold excess; no substantial change in binding; EMSA: 25 mM Tris-HCl pH 7.5, 40 mM NaCl, 20% glycerol, 1 mM DTT, 0.5 mM MgCl2, overnight at room temperature; covalent assay: 25 mM Tris-HCl pH 7.5, 20 mM KCl
Settings: protein: recombinant; tags: N-terminal Flag-6xHis-TEV site; blunt

Chain of DNMT1 (P26358 whole entry): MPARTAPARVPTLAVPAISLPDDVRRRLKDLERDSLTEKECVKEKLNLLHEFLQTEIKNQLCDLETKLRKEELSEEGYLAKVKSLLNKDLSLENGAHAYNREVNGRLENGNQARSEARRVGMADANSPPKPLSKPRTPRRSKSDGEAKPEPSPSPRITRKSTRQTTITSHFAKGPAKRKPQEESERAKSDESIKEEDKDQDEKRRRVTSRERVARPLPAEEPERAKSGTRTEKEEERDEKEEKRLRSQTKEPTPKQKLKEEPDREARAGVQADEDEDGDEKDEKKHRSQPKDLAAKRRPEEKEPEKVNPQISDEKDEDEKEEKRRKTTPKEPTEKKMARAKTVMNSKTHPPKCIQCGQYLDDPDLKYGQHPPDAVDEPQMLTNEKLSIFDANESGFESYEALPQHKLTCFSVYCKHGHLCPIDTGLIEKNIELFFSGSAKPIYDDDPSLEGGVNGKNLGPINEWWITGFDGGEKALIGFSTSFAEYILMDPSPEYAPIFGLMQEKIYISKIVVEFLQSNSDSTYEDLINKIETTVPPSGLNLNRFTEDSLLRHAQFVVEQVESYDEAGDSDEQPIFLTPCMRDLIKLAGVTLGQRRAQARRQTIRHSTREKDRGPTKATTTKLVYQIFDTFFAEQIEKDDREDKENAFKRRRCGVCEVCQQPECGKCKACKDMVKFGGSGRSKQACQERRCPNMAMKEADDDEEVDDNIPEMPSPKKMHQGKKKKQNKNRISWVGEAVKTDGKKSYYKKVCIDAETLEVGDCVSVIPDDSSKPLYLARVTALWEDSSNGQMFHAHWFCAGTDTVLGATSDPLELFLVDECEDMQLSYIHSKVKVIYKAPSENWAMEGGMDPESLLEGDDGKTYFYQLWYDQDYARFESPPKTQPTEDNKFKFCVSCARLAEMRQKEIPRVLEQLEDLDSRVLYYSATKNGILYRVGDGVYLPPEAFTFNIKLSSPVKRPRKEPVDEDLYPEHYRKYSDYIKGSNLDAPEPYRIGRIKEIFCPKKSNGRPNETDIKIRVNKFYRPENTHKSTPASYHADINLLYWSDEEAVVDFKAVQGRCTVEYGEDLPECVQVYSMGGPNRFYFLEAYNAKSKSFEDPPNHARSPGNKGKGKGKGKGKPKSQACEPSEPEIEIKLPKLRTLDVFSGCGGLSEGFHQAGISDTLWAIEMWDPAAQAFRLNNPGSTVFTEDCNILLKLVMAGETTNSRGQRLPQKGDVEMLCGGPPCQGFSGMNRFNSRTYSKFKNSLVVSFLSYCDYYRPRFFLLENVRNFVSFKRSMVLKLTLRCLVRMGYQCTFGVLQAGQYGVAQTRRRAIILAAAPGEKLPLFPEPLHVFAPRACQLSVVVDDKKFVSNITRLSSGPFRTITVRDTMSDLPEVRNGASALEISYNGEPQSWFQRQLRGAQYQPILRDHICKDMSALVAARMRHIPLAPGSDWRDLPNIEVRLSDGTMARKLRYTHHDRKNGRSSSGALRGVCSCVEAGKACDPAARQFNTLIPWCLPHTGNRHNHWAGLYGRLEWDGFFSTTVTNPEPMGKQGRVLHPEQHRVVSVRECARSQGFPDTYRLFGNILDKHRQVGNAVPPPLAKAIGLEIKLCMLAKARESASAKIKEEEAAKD

B1: 26 bp hemi-methylated DNA (dsDNA)
DNA 1: TGGAGTCGAGGCCGCCTGCGCAGGAC
DNA 2: GTCCTGCGCAGGCGGCCTCGACTCCA
modifications: 5-methyl-dC at position 13 of strand 1
- binding result: binds
